# Assay results reported in patent US20250276075A1, “METHODS OF TREATING AXL-EXPRESSING CANCERS WITH ANTI-AXL ANTIBODIES, ANTIBODY FRAGMENTS AND THEIR IMMUNOCONJUGATES” (BIOATLA, INC., priority 2020, published 2025).
# Experiment: Phase 1 clinical study of BA3011: safety (adverse events, DLT, MTD, RP2D)
# Type: in vivo, human
# Text: MTD evaluation will be based on the DLT-evaluable Population. The DLT-evaluable Population includes all patients enrolled in Phase 1 dose escalation who receive at least 1 full assigned dose of BA3011 and complete the safety follow-up through the DLT-evaluation period (defined as the time period from the first dose of BA3011 through 21 days post Dose 1) or experience any DLT during the DLT-evaluation period. Non-DLT-evaluable patients will be replaced. The safety evaluation will be based on the As-Treated Population. Adverse events (AEs) will be coded by Medical Dictionary for Regulatory Activities (MedDRA) and graded according to the NCI CTCAE v4.03, and the type, incidence, severity, and relationship to each IP will be summarized. If any associations of interest between AEs and baseline characteristics are observed, additional stratified results may be presented. All treatment-emergent AEs will be summarized by MedDRA system organ class and preferred term. Laboratory abnormalities with toxicity grades according to the NCI CTCAE will be summarized.
# A DLT is defined as meeting 1 of the following criteria during the 21-day DLT evaluation period or a treatment-related toxicity of any grade requiring dose delay of 1 week or more between the first and second cycles: • Non-hematologic Toxicity • For non-hematologic toxicities, DLT will be defined as any National Cancer Institute (NCI) Common Terminology Criteria for Adverse Events (CTCAE) v4.03 (published 14 Jun. 2010) Grade 3 or greater toxicity at least possibly related to treatment, except for: • Grade 3 fatigue. • Grade 3 nausea and vomiting lasting less than 24 hours. • Grade 3 non-hematologic laboratory abnormalities that are asymptomatic and resolve to Grade 1 or baseline (if the patient entered the study with existing toxicity) within 14 days. • Grade 3 or 4 allergic or hypersensitivity reaction at first occurrence in the absence of prophylactic steroid that resolves in less than 6 hours with appropriate clinical intervention
# • DLT for hematologic toxicity, using NCI CTCAE v4.03, will be defined as: • Grade 4 neutropenia lasting greater than 7 days. • Grade 3 or 4 febrile neutropenia. • Grade 4 platelet count (<25,000/mm3) at any time.
# Study BA3011-001 was an ongoing, multi-center, open-label, Phase 1/2 first-in-human trial of BA3011.
# In Phase 1 (NCT03425279), BA3011 was administered once (Q3W) or twice (2Q3W) every 3 weeks via intravenous (IV) infusion.
# [1] = All TEAEs, All Grades, sarcoma patients, Phase 1
# [2] = All TEAEs, Grade 3, sarcoma patients, Phase 1
# [3] = All TEAEs, Grade 4, sarcoma patients, Phase 1
# [4] = Related TEAEs, All Grades, sarcoma patients, Phase 1
# [5] = Related TEAEs, Grade 3, sarcoma patients, Phase 1
# [6] = Related TEAEs, Grade 4, sarcoma patients, Phase 1
# [7] = Total, 26 sarcoma patients, Phase 1
molecule,measurement,setting,value
"Mecbotamab vedotin (conjugate, chains of the INN, looked up, MC-vc-PAB-MMAE conjugate) VH: EVQLVQSGAEVKKPGATVKISCKVSGYSFWGATMNWIRQPPGKGLEWIGLIKPSNGGTSYNQKFKGRVTISADKSISTAYLQWSSLKASDTAMYYCAHGHYESYEAMDYWGQGTLVTVSS VL: DIQMTQSPSSLSASVGDRVTITCKASQDVVSAVAWYQQKPGQAPRLLIYWQDTRHTGVPSRFSGSGSGTEFTLTISSLQPDDFATYYCQEHFSPPLTFGQGTKVEIK","Stomatitis, %",[1],(3.8) %
same,"Vomiting, %",[1],(23.9) %
same,"Anemia, %",[2],(7.7) %
same,"Aspartate aminotransferase increased, %",[2],(3.8) %
same,"Blood bilirubin increased, %",[2],(3.8) %
same,"Constipation, %",[2],(3.8) %
same,"Hypokalemia, %",[2],(11.5) %
same,"Hyponatremia, %",[2],(7.7) %
same,"Lymphocyte count decreased, %",[2],(3.8) %
same,"Nausea, %",[2],(3.8) %
same,"Neutrophil count decreased, %",[2],(15.4) %
same,"Patients with at least one TEAE, %",[2],(57.7) %
same,"Peripheral neuropathy, %",[2],(3.8) %
same,"Stomatitis, %",[2],(3.8) %
same,"Vomiting, %",[2],(3.8) %
same,"Neutrophil count decreased, %",[3],3.8%
same,"Patients with at least one TEAE, %",[3],7.7%
same,on-target toxicity to normal AXL-expressing tissue,Phase 1,No clinically meaningful on-target toxicity was observed
same,rate of constipation,Phase 1,low
same,dose-limiting toxicities,"Phase 1, highest dose tested","limited to monomethyl auristatin E (MMAE) conjugate-associated toxicity at the highest dose tested, including reversible neutropenia"
same,SAE related to treatment (grade 2 hepatic encephalopathy),Phase 1 sarcoma patients,1 patient
same,patients with grade 3 related TEAEs,Phase 1 sarcoma patients,Eleven
same,patients with grade 4 neutropenia,Phase 1 sarcoma patients,1 patient
same,treatment-emergent adverse events (TEAEs) leading to death,Phase 1 sarcoma patients,no treatment-emergent adverse events (TEAEs) leading to death
same,treatment-related TEAEs leading to treatment discontinuation,Phase 1 sarcoma patients,2 (7.7%) patients
same,"Alanine aminotransferase increased, %",[4],(38.5) %
same,"Alopecia, %",[4],(23.1) %
same,"Anemia, %",[4],(3.8) %
same,"Arthralgia, %",[4],(3.8) %
same,"Aspartate aminotransferase increased, %",[4],(42.3) %
same,"Blood alkaline phosphatase increased, %",[4],(19.2) %
same,"Blood bilirubin increased, %",[4],(3.8) %
same,"Bone pain, %",[4],(3.8) %
same,"Constipation, %",[4],(15.4) %
same,"Decreased appetite, %",[4],(15.4) %
same,"Diarrhea, %",[4],(19.2) %
same,"Fatigue, %",[4],(42.3) %
same,"Hypokalemia, %",[4],(15.4) %
same,"Hyponatremia, %",[4],(3.8) %
same,"Lymphocyte count decreased, %",[4],(7.7) %
same,"Nausea, %",[4],(38.5) %
same,"Neutrophil count decreased, %",[4],(26.9) %
same,"Patients with at least one TEAE, %",[4],(84.6) %
same,"Peripheral neuropathy, %",[4],(15.4) %
same,"Stomatitis, %",[4],(3.8) %
same,"Vomiting, %",[4],(19.2) %
same,"Anemia, %",[5],(3.8) %
same,"Aspartate aminotransferase increased, %",[5],(3.8) %
same,"Blood bilirubin increased, %",[5],(3.8) %
same,"Hypokalemia, %",[5],(11.5) %
same,"Hyponatremia, %",[5],(3.8) %
same,"Lymphocyte count decreased, %",[5],(3.8) %
same,"Nausea, %",[5],(3.8) %
same,"Neutrophil count decreased, %",[5],(15.4) %
same,"Patients with at least one TEAE, %",[5],(42.3) %
same,"Peripheral neuropathy, %",[5],(3.8) %
same,"Stomatitis, %",[5],(3.8) %
same,"Vomiting, %",[5],(3.8) %
same,"Neutrophil count decreased, %",[6],3.8%
same,"Patients with at least one TEAE, %",[6],3.8%
same,"Any TEAE, % of patients",[7],(100.0)%
same,"Any TEAE, no. of patients",[7],26
same,"Any related serious TEAE, % of patients",[7],(3.8%)
same,"Any related serious TEAE, no. of patients",[7],1
same,"Any serious TEAE, % of patients",[7],(34.6%)
same,"Any serious TEAE, no. of patients",[7],9
same,"Related TEAE leading to treatment discontinuation, no. of patients",[7],2
same,"Related TEAEs with CTCAE grade 3 or 4, % of patients",[7],(46.2%)
same,"Related TEAEs with CTCAE grade 3 or 4, no. of patients",[7],12
same,"TEAE leading to treatment discontinuation, % of patients",[7],(7.7%)
same,"TEAE leading to treatment discontinuation, no. of patients",[7],2
same,"TEAE with CTCAE grade 3 or 4, % of patients",[7],(65.4%)
same,"TEAE with CTCAE grade 3 or 4, no. of patients",[7],17
same,"TEAEs leading to death, no. of patients",[7],0
same,transient grade 1-2 liver enzyme elevations,seen during cycle 1 treatment,generally did not re-occur upon re-treatment
same,creatinine levels,throughout treatment,generally unchanged throughout treatment
